# Results reported in publication PMC4342030 (Molecular Biology of the Cell, 2015).
# T1: purified APPL2 after cleavage of GST (mouse, UniProt Q8K3G9 1-662)
# T1 sequence (looked up): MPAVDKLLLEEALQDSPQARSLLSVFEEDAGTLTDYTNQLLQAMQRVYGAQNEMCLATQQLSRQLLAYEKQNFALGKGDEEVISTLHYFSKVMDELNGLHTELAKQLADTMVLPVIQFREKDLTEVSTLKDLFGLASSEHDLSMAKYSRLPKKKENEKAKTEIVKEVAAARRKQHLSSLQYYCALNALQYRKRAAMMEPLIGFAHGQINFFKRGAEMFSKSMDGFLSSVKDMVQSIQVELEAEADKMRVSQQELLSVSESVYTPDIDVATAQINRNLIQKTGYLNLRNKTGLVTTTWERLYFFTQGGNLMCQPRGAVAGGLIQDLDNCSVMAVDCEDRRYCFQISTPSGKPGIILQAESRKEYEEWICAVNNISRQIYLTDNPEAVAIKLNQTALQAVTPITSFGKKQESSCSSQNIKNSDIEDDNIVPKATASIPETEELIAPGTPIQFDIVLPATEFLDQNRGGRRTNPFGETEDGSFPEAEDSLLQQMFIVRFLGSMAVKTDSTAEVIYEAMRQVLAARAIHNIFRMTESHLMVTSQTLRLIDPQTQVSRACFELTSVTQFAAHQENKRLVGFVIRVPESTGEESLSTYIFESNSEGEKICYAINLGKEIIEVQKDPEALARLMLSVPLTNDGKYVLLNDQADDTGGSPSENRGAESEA
# T2: GFP-Rab31 (mouse, UniProt Q921E2 1-195)
# T2 sequence (looked up): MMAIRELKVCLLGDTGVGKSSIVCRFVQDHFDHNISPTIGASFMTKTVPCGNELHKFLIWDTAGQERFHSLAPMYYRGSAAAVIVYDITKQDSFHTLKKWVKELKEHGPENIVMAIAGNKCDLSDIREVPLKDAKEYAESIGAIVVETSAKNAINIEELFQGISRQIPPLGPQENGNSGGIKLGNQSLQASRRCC
# Legend:
# [1] = target: T1, purified APPL2 after cleavage of GST; test: pull-down
# GFP-Rab31 = target: T2, GFP-Rab31; test: co-IP
binding result [1],fold preference over GFP-Rab5a (GFP-Rab31),Binder
binds,,"GST-Rab31 (natural protein, mouse, UniProt Q921E2 1-195, looked up) MMAIRELKVCLLGDTGVGKSSIVCRFVQDHFDHNISPTIGASFMTKTVPCGNELHKFLIWDTAGQERFHSLAPMYYRGSAAAVIVYDITKQDSFHTLKKWVKELKEHGPENIVMAIAGNKCDLSDIREVPLKDAKEYAESIGAIVVETSAKNAINIEELFQGISRQIPPLGPQENGNSGGIKLGNQSLQASRRCC"
,3 fold,"APPL2 (adaptor protein, phosphotyrosine interaction, PH domain, and leucine zipper–containing 2) (natural protein, mouse (endogenous in RAW 264.7), UniProt Q8K3G9 1-662, looked up) MPAVDKLLLEEALQDSPQARSLLSVFEEDAGTLTDYTNQLLQAMQRVYGAQNEMCLATQQLSRQLLAYEKQNFALGKGDEEVISTLHYFSKVMDELNGLHTELAKQLADTMVLPVIQFREKDLTEVSTLKDLFGLASSEHDLSMAKYSRLPKKKENEKAKTEIVKEVAAARRKQHLSSLQYYCALNALQYRKRAAMMEPLIGFAHGQINFFKRGAEMFSKSMDGFLSSVKDMVQSIQVELEAEADKMRVSQQELLSVSESVYTPDIDVATAQINRNLIQKTGYLNLRNKTGLVTTTWERLYFFTQGGNLMCQPRGAVAGGLIQDLDNCSVMAVDCEDRRYCFQISTPSGKPGIILQAESRKEYEEWICAVNNISRQIYLTDNPEAVAIKLNQTALQAVTPITSFGKKQESSCSSQNIKNSDIEDDNIVPKATASIPETEELIAPGTPIQFDIVLPATEFLDQNRGGRRTNPFGETEDGSFPEAEDSLLQQMFIVRFLGSMAVKTDSTAEVIYEAMRQVLAARAIHNIFRMTESHLMVTSQTLRLIDPQTQVSRACFELTSVTQFAAHQENKRLVGFVIRVPESTGEESLSTYIFESNSEGEKICYAINLGKEIIEVQKDPEALARLMLSVPLTNDGKYVLLNDQADDTGGSPSENRGAESEA"
